Measured values reported in the Immune Epitope Database (IEDB).

Tests used:
[1] = molecular target: HLA-A*80:01; assay: IEDB peptide-MHC binding, purified MHC/direct/fluorescence; filed as Kd, often an IC50 or EC50 that approximates it; ≥ and ≤ were set here for values at or beyond the usual limits of such assays
[2] = molecular target: HLA-A*30:01; assay: IEDB peptide-MHC binding, purified MHC/competitive/fluorescence; filed as Kd, often an IC50 or EC50 that approximates it; ≥ and ≤ were set here for values at or beyond the usual limits of such assays
[3] = molecular target: HLA-A*01:01; assay: as above; settings: source organism: Homo sapiens
[4] = molecular target: HLA-A*02:01; assay: IEDB peptide-MHC binding, purified MHC/direct/fluorescence; filed as Kd, often an IC50 or EC50 that approximates it; ≥ and ≤ were set here for values at or beyond the usual limits of such assays
[5] = molecular target: HLA-B*58:01; assay: as above
[6] = molecular target: HLA-B*15:01; assay: as above
[7] = molecular target: HLA-B*07:02; assay: as above
[8] = molecular target: HLA-A*01:01; assay: as above
[9] = molecular target: HLA-B*46:01; assay: as above; settings: source organism: Brucella melitensis
[10] = molecular target: HLA-A*03:01; assay: as above
[11] = molecular target: HLA-A*24:02; assay: as above
[12] = molecular target: HLA-A*31:01; assay: as above
[13] = molecular target: HLA-A*11:01; assay: as above
[14] = molecular target: HLA-A*02:06; assay: as above
[15] = molecular target: HLA-A*02:19; assay: as above
[16] = molecular target: HLA-A*02:12; assay: as above
[17] = molecular target: HLA-A*02:03; assay: as above
[18] = molecular target: HLA-B*40:01; assay: as above
[19] = molecular target: HLA-B*44:02; assay: as above
[20] = molecular target: HLA-B*27:05; assay: as above
[21] = molecular target: HLA-A*24:03; assay: as above; settings: source organism: Amur virus
[22] = molecular target: HLA-A*23:01; assay: as above; settings: source organism: Amur virus
[23] = molecular target: HLA-A*29:02; assay: as above; settings: source organism: Mammarenavirus machupoense
[24] = molecular target: HLA-A*29:02; assay: IEDB peptide-MHC binding, purified MHC/competitive/radioactivity; filed as Kd, often an IC50 or EC50 that approximates it; ≥ and ≤ were set here for values at or beyond the usual limits of such assays; settings: source organism: Mammarenavirus lassaense
[25] = molecular target: HLA-A*32:01; assay: as above; settings: source organism: Mammarenavirus lassaense
[26] = molecular target: HLA-A*30:01; assay: as above; settings: source organism: Mammarenavirus lassaense
[27] = molecular target: HLA-A*30:02; assay: as above; settings: source organism: Mammarenavirus lassaense
[28] = molecular target: HLA-A*26:01; assay: as above; settings: source organism: Mammarenavirus lassaense
[29] = molecular target: HLA-B*15:42; assay: IEDB peptide-MHC binding, purified MHC/competitive/fluorescence; filed as Kd, often an IC50 or EC50 that approximates it; ≥ and ≤ were set here for values at or beyond the usual limits of such assays; settings: source organism: Mammarenavirus lassaense
[30] = molecular target: HLA-B*83:01; assay: as above; settings: source organism: Mammarenavirus lassaense
[31] = molecular target: HLA-B*45:06; assay: as above; settings: source organism: Mammarenavirus lassaense
[32] = molecular target: HLA-A*69:01; assay: IEDB peptide-MHC binding, purified MHC/direct/fluorescence; filed as Kd, often an IC50 or EC50 that approximates it; ≥ and ≤ were set here for values at or beyond the usual limits of such assays
[33] = molecular target: HLA-A*02:11; assay: as above; settings: source organism: Salmonella enterica subsp. arizonae serovar 62:z4,z23:-
[34] = molecular target: HLA-C*06:02; assay: as above; settings: source organism: Yersinia pestis Nepal516
[35] = molecular target: HLA-B*08:01; assay: as above
[36] = molecular target: HLA-A*24:03; assay: IEDB peptide-MHC binding, purified MHC/competitive/fluorescence; filed as Kd, often an IC50 or EC50 that approximates it; ≥ and ≤ were set here for values at or beyond the usual limits of such assays; settings: source organism: Encephalitozoon cuniculi GB-M1
[37] = molecular target: HLA-B*08:02; assay: IEDB peptide-MHC binding, purified MHC/direct/fluorescence; filed as Kd, often an IC50 or EC50 that approximates it; ≥ and ≤ were set here for values at or beyond the usual limits of such assays; settings: source organism: Rickettsia sibirica 246
[38] = molecular target: HLA-A*26:01; assay: as above; settings: source organism: Rickettsia sibirica 246
[39] = source organism: Brucella melitensis
[40] = source organism: Brucella ovis ATCC 25840
[41] = source organism: Mammarenavirus lassaense
[42] = source organism: Yersinia enterocolitica
[43] = source organism: Salmonella enterica subsp. arizonae serovar 62:z4,z23:-
[44] = source organism: Rickettsia conorii

## CSDSDGLAP
[1]; source organism: Homo sapiens
  Kd: ≥ 20000 nM
[2]; source organism: Homo sapiens
  Kd: ≥ 20000 nM
[3]
  Kd: ≥ 20000 nM

## CTDPPLLSV
[4]; [39]
  Kd: 526 nM
[5]; [39]
  Kd: ≥ 20000 nM
[6]; [39]
  Kd: ≥ 20000 nM
[7]; [39]
  Kd: ≥ 20000 nM
[8]; [39]
  Kd: 6980 nM
[9]
  Kd: ≥ 20000 nM
[10]; [39]
  Kd: ≥ 20000 nM
[11]; [39]
  Kd: ≥ 20000 nM
[12]; [39]
  Kd: ≥ 20000 nM
[13]; [39]
  Kd: ≥ 20000 nM
[14]; [40]
  Kd: 23 nM
[15]; [40]
  Kd: ≥ 20000 nM
[16]; [40]
  Kd: 529 nM
[17]; [40]
  Kd: 1050 nM
[18]; [39]
  Kd: ≥ 20000 nM
[19]; [39]
  Kd: ≥ 20000 nM
[20]; [39]
  Kd: ≥ 20000 nM

## ESPSSIWVF
[21]
  Kd: 1220 nM
[22]
  Kd: 145 nM
[11]; source organism: Amur virus
  Kd: 5.8 nM
[2]; source organism: Hantaan virus 76-118
  Kd: 2330 nM

## ISEMLSKEY
[23]
  Kd: 179 nM
[1]; source organism: Mammarenavirus machupoense
  Kd: 8000 nM
[8]; source organism: Mammarenavirus cupixiense
  Kd: 545 nM

## LIDGRTSFY
[1]; [41]
  Kd: 14.8 nM
[8]; [41]
  Kd: 0.9 nM
[24]
  Kd: 1150 nM
[25]
  Kd: ≥ 77800 nM
[26]
  Kd: ≥ 51300 nM
[27]
  Kd: 1210 nM
[28]
  Kd: 14400 nM
[29]
  Kd: ≥ 5000 nM
[30]
  Kd: ≥ 5000 nM
[31]
  Kd: ≥ 5000 nM

## RIYSHIAPY
[4]; [42]
  Kd: 1970 nM
[5]; [42]
  Kd: 58 nM
[6]; [42]
  Kd: 109 nM
[7]; [42]
  Kd: ≥ 20000 nM
[8]; [42]
  Kd: ≥ 20000 nM
[10]; [42]
  Kd: 31.2 nM
[32]; [42]
  Kd: ≥ 20000 nM
[33]
  Kd: 126 nM
[34]
  Kd: ≥ 20000 nM
[12]; [42]
  Kd: 46.7 nM
[13]; [42]
  Kd: 36.8 nM
[14]; [43]
  Kd: 221 nM
[15]; [43]
  Kd: ≥ 20000 nM
[35]; [43]
  Kd: ≥ 20000 nM
[16]; [43]
  Kd: 475 nM
[17]; [43]
  Kd: 562 nM
[18]; [42]
  Kd: ≥ 20000 nM
[19]; [42]
  Kd: ≥ 20000 nM
[20]; [42]
  Kd: 723 nM

## RVLENTHIF
[2]; source organism: Encephalitozoon cuniculi GB-M1
  Kd: 222 nM
[36]
  Kd: 2.9 nM

## SSSGMDAYY
[4]; [44]
  Kd: ≥ 20000 nM
[5]; [44]
  Kd: 216 nM
[6]; [44]
  Kd: 159 nM
[7]; [44]
  Kd: ≥ 20000 nM
[8]; [44]
  Kd: 69.2 nM
[10]; [44]
  Kd: ≥ 20000 nM
[37]
  Kd: ≥ 20000 nM
[11]; [44]
  Kd: ≥ 20000 nM
[32]; [44]
  Kd: ≥ 20000 nM
[12]; [44]
  Kd: ≥ 20000 nM
[35]; source organism: Rickettsia sibirica 246
  Kd: ≥ 20000 nM
[38]
  Kd: 124 nM
[18]; [44]
  Kd: ≥ 20000 nM
[19]; [44]
  Kd: ≥ 20000 nM
[20]; [44]
  Kd: ≥ 20000 nM
